From the Human Domainome abundance scans (Beltran et al. 2025)

B1: Storkhead-box protein 2, residues 64 to 141; numbered along this chain, Q9P2F5 (parent)
chain: SPISQSQFIPLGEILCLAISAMNSARKPVTQEALMEHLTTCFPGVPTPSQEILRHTLNTLVRERKIYPTPDGYFIVTP

Variants of: B1
Test: abundance fitness (aPCA) (normalised: wild type 0, dead -1); higher = more abundant; growth selection in yeast, the domain comes from the species named
Conditions: Homo sapiens

Abundance fitness of substitutions, site by site:
S1: M -0.227; P -0.469; R -0.344; T -0.486; V -0.354; W -0.83; Y -0.122
P2: A -0.084; C -0.15; D 0.124; E -0.18; G -0.095; H 0.051; I -0.037; K -0.137; L 0.046; M 0.013; N 0.188; Q 0.103; R 0.019; S 0.002; V 0.001; W -0.102; Y 0.107
I3: A -0.075; C -0.16; E 0.041; F -0.255; G -0.046; H -0.017; M -0.047; N -0.207; P -0.106; Q -0.12; R -0.022; S 0.004; T -0.024; V 0.001; W -0.44; Y -0.158
S4: A -0.098; C -0.013; D 0.104; F -0.151; G -0.17; H 0.008; I -0.079; K -0.154; L -0.026; M 0.002; N -0.038; P 0.007; R -0.155; T -0.006; V -0.056; W -0.161; Y -0.076
Q5: A 0.037; C -0.025; D -0.021; E -0.015; F -0.109; G -0.12; H -0.099; I -0.052; K 0.012; L -0.079; P -0.125; R -0.068; S -0.007; T 0.049; W -0.276; Y -0.055
S6: D 0.027; E -0.046; F -0.091; G -0.041; H -0.334; I -0.148; K -0.126; M -0.123; N -0.033; P -0.07; Q -0.069; R -0.062; T -0.079; V -0.171; W -0.246; Y -0.206
Q7: A 0.043; C -0.154; D -0.032; E 0.023; F -0.065; G 0.063; H -0.122; I -0.068; K -0.051; L -0.085; N -0.015; P -0.021; S 0.036; T -0.02; V -0.064; W -0.152
F8: A -0.055; C -0.104; D -0.027; E -0.012; G -0.103; H 0.015; I -0.017; K -0.137; L -0.135; M -0.102; N -0.021; P -0.081; Q -0.196; R -0.059; S 0.017; T -0.08; V -0.063; W -0.016; Y -0.326
I9: A 0.005; C 0.067; D -0.035; E 0.074; G 0.025; H -0.243; K 0.044; L 0.03; M 0.062; N 0.131; P 0.046; Q 0.101; R 0.03; T 0.007; V 0.011; W -0.011; Y -0.082
P10: A -0.027; C -0.136; D -0.135; E -0.043; F -0.04; H -0.101; I 0.302; K 0.016; L 0.085; M 0.048; N 0.108; R 0.089; S -0.067; T -0.024; V 0.171; W 0.175; Y 0.003
L11: A -0.258; C -0.62; D -0.316; E -0.325; F 0.054; G -0.277; H -0.051; I -0.096; K -0.51
